Measurements published in publication PMC5691135, “The semiquinone swing in the bifurcating electron transferring flavoprotein/butyryl-CoA dehydrogenase complex from Clostridium difficile” (Nature Communications, 2017).

Target: the molecule itself
Test: crystal structure; X-ray structure of the co-produced and co-purified (EtfAB/Bcd)4 complex at 3.1 Å, D state; crystallised in 0.1 M calcium acetate, 14 % (v/v) PEG 400, 0.1 M MES, pH 6.5; protein at 20 mg/ml in 10 mM MOPS and 1 mM FAD, pH 7.0

B1: Butyryl-CoA dehydrogenase (Bcd) of the EtfAB/Bcd complex from Clostridium difficile (enzyme)
chain: MDLNSKKYQMLKELYVSFAENEVKPLATELDEEERFPYETVEKMAKAGMMGIPYPKEYGGEGGDTVGYIMAVEELSRVCGTTGVILSAHTSLGSWPIYQYGNEEQKQKFLRPLASGEKLGAFGLTEPNAGTDASGQQTTAVLDGDEYILNGSKIFITNAIAGDIYVVMAMTDKSKGNKGISAFIVEKGTPGFSFGVKEKKMGIRGSATSELIFEDCRIPKENLLGKEGQGFKIAMSTLDGGRIGIAAQALGLAQGALDETVKYVKERVQFGRPLSKFQNTQFQLADMEVKVQAARHLVYQAAINKDLGKPYGVEAAMAKLFAAETAMEVTTKAVQLHGGYGYTRDYPVERMMRDAKITEIYEGTSEVQRMVISGKLLK
notes: Butyryl-CoA dehydrogenase of Clostridium difficile DSM 1296 (ATCC 9689), gene bcd (CD 1054); N-terminal helical domain 1-116, medial β-sheet domain 117-227, C-terminal helical domain 228-378; Tetramer that forms the core of the (EtfAB/Bcd)4 complex; also called Bcd1; Bcd2
- stoichiometry N: 4
